# Measurements as given in publication PMC5760527 (2018).
# Biological target: Cx43 EL1 peptide extracellular loop 1 (EL1) (Mus musculus, UniProt P23242)
# Assay: SPR
# Chain of Cx43 EL1 peptide extracellular loop 1 (EL1) (P23242 45-76): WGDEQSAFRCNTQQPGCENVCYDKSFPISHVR
binder,measurement,value
QPGCEN [P4 peptide (Cx43 mimetic)],Kd,20 µM
